In US20240218071A1 (ANHUI BIOX VISION BIOLOGICAL TECHNOLOGY, published 2024):

What was measured:
[1] = target: T1, P17-Fc fusion protein (human CD40 extracellular domain fused to human IgG1 Fc) (human, UniProt P25942 21-193, limits assumed); assay: ELISA of Fab on P17-Fc
T1 construct: CD40 ECD at the N-terminus of the human IgG1 Fc; expressed in CHO-K cells; also called CD40 ECD-Fc fusion protein; CD40 antigen P17-Fc; not shown: human IgG1 Fc fragment

[2] = target: T2, cynomolgus monkey CD40 expressed on the cell surface (cynomolgus monkey, UniProt G7PG38 21-278); assay: flow cytometry on CHO-K-cynoCD40 cells, APC anti-human F(ab')2 secondary antibody
T2 construct: also called CHO-K-cynoCD40 cells
T2 sequence (G7PG38 entry or part of it limits assumed): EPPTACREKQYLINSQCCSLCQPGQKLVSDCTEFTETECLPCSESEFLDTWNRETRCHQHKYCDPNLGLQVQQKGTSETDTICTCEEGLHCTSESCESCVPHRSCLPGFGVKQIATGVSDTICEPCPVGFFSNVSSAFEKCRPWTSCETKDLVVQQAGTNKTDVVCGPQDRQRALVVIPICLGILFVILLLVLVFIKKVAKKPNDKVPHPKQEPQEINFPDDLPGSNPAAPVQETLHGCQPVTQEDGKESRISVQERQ
Procedure: The CHO-K-huCD40 cells or CHO-K-cynoCD40 cells were seeded into a 96-well plate at 1.0×10⁵ cells/well, and diluted C8 anti-CD40 Fab candidate molecules were added. […] Then, the cells were washed, and the binding of the C8 anti-CD40 Fab candidate molecules to CD40 molecules expressed on the cell surface was detected by flow cytometry (Beckman Coulter).

T1 sequence (P25942 21-193 limits assumed): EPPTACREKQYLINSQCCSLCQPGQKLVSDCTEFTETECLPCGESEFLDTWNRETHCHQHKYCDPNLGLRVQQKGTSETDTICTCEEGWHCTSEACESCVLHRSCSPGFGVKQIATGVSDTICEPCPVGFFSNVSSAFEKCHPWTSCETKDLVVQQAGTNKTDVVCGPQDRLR

- EC50 [1]: ~0.476 µg/mL
- binding result [2]: binds
B1: C8 clone anti-CD40 Fab molecule (Fab, V domains shown)
VH: EVQLLESGGGLVRPGGSLRLSCAASGFTFGSYEMNWVRQAPGKGLEWVSYISSSGETTDYADSVKGRFTVSRDNSKNLLYLQMNSLRAEDTAVYYCARDVFFFDSSGDNGAYGMDVWGQGTMVTVSS
VL: DIQLTQSPSSLTASVGDRVTITCRSSQGIRSSLAWYQQKPGKPPKLLIYGASSLEGGVPSRFSGSGSGTDFTLTISSLQPEDFATYYCQQLNSFPSTFGQGTKLEIK
notes: Expressed as a Fab fragment in CHO-K cells; also called C8 Fab; C8 clone Fab
